Target: the molecule itself
Assay: crystal structure

B1: S. cerevisiae 5-aminolevulinic acid synthase (Hem1), PLP-cleaved ALAS 58-548 (enzyme)
chain: not shown
stoichiometry N: 2

Reference: PMC5894356 (Structure (London, England : 1993), 2018)
